Experimental data: patent publication US20250326862A1, “Antibody or Fragment Thereof Binding Specifically to Mertk, and Anti-Tumor Agent” (Chiome Bioscience Inc., priority 2021, published 2025)

Legend:
Assay in all cases: ELISA, antigen immobilised at 5 ug/ml, HRP-labelled secondary antibody
[1] = molecular target: T1, Recombinant Mouse Mer Fc Chimera Protein (R&D systems) (mouse, UniProt Q60805 23-496, limits assumed)
T1 construct: Bought reagent; also called mouse MerTK antigen; human Fc fusion protein of mouse MerTK; not shown: human Fc
T1 sequence (looked up): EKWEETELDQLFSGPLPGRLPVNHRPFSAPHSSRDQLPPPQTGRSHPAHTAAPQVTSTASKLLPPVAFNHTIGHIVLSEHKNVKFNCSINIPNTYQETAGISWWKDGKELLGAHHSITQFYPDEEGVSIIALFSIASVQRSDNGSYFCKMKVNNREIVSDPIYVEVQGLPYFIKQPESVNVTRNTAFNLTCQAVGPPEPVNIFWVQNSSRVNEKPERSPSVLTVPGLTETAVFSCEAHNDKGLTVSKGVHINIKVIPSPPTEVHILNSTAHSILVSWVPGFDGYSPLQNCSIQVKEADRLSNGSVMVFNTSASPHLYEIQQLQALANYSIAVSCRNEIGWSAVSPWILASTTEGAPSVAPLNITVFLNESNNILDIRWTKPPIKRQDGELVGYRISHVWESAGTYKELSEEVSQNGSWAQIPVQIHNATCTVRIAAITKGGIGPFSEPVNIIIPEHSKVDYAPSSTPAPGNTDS
Experimental: (§1) The ELISA was performed according to the procedures indicated below. First, the respective antigens were added to an ELISA plate (Nunc) at a concentration of 5 μg/ml and immobilized overnight at room temperature. After removing the immobilization solution, 1% BSA/PBS was added for blocking reaction and left to stand at room temperature for 1 hour. After the blocking, the plate was washed with 0.05% Tween 20/PBS and an antibody solution was added for primary reaction at room temperature for 1 hour. After washing, an HRP-labelled antibody (GE Healthcare) was added for secondary reaction for 1 hour. After washing, a chromogenic substrate solution of TMB (Dako) was added for chromogenic reaction for 10 minutes, 1 N sulfuric acid was added to terminate the reaction and the absorbance was measured at 450 nm.

rat MerTKECD-hFc = molecular target: T2, rat MerTKECD-hFc (rat, UniProt P57097 19-497)
T2 construct: extracellular domain; Prepared in the same manner as hMerTKECD-mFc and mMerTKECD-mFc; not shown: human Fc
T2 sequence (looked up): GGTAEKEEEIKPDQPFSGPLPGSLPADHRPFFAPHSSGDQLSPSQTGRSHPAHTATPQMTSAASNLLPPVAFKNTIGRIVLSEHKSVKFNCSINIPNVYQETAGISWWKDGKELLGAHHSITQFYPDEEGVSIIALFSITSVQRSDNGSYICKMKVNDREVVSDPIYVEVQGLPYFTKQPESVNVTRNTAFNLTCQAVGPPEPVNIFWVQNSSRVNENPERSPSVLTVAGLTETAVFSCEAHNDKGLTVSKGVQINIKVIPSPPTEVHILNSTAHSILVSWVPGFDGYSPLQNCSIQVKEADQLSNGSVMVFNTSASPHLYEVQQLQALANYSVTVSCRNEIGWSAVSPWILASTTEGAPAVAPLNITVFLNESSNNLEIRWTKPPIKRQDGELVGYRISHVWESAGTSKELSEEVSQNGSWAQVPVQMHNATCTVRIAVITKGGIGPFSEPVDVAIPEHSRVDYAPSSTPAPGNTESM
Experimental: as §1

[2] = molecular target: T3, Recombinant Human Mer Fc Chimera Protein (R&D systems) (human, UniProt Q12866 26-499, limits assumed)
T3 construct: Bought reagent; also called human MerTK antigen; human Fc fusion protein of human MerTK; not shown: human Fc
T3 sequence (looked up): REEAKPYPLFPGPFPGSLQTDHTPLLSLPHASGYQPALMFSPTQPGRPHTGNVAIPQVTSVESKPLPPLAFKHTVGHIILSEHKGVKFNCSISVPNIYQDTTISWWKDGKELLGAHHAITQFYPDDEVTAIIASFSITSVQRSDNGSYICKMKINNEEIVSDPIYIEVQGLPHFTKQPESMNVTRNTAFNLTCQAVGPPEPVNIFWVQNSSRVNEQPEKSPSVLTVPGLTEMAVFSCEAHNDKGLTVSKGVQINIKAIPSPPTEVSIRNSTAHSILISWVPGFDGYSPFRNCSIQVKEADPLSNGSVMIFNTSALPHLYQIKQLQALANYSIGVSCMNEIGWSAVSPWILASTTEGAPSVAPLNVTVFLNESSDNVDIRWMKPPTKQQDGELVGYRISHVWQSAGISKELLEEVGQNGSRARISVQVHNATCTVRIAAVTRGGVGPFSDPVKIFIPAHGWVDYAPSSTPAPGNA
Experimental: as §1

binding result [1]: binds | binding result (rat MerTKECD-hFc): binds | binding result [2]: binds
B1: m20A77_mIgG1 (antibody, V domains shown)
VH: QVQLQQPGTELVKPGASVKLSCRASGNTFTSYWMHWVKQRPGQGLEWIGNINPSSGGTNYNEKFKSKATLTVDKSSSTAYMQLSSLTSEDSAVYYCARLNYYGFDGFAFWGQGTLVTVSA
VL: DIKMTQSPSSMYASLGERVTITCKASQDINSYLSWFQQKPGKSPKTLIYRANRLVSGVPSRFSGSGSGQDYSLTISSLEYEDMGIYYCLQYDEFPFTFGSGTKLEIK
notes: CDR-modified variant of 20A77, made recombinantly with mouse IgG1 heavy chain and kappa light chain constant regions
